# Test results taken from patent US12331106B2, “Anti-angiopoietin-2 antibodies that induce Tie2 activation” (Institute for Basic Science, priority 2018, dated 2025).
# Read-outs that look alike come from different tables or passages of the source.
# Tests used:
# hAng2-RBD = target: T1, hAng2-RBD (Homo sapiens, UniProt O15123); format: binding; details: for Relative Uptake (Da) Δ: 2C8
# T1 construct: made in house; host or cells: HEK293F
# T1 sequence (O15123 276-496): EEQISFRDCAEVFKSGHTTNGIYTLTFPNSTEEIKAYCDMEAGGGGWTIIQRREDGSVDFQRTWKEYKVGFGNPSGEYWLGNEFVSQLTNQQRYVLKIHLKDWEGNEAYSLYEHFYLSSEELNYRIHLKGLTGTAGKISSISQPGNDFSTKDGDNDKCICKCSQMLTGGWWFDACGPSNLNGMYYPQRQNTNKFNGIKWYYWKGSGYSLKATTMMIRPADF
# Protocol: The antigenic determinants (epitopes) of hAng2 recognized by mouse monoclonal antibodies, 2C8 and 4B9, were analyzed by HDX-MS (Hydrogen/deuterium exchange-mass spectrometry) technique. HDX-MS analysis methods are described in the following articles; Houde D, Engen J R (2013) Methods Mol. Biol. 988: 269-89 and Houde et al. (2011) J. Pharm. Sci. 100 (6), 2071.
# Recombinant hAng2-RBD protein was used to analyze the epitopes of antibodies 2C8 and 4B9. […] The prepared hAng2-RBD/antibody complexes were diluted 15 times with deuterium labeling buffer, labeled at various time, and then quenched with the same volume of quenching buffer. The labeling reaction time was 0 min (undeuterium), 0.33 min, 10 min, 60 min and 240 min. However, in undeuterium condition, the deuterium labeling buffer was replaced with equilibrium buffer and the reaction was immediately stopped with quenching buffer. For mass spectrometry, the deuterium labeled hAng2-RBD/antibody samples were loaded on a pepsin column and peptide digestion was proceeded.
# The deuterium uptake difference between hAng2-RBD alone and the hAng2-RBD-antibody complex conditions was comparatively analyzed, and a region showing a distinct decrease in the deuterium uptake is either a peptide to which the antibody binds directly, or a structurally changed region. When the deuterium uptake difference between hAng2-RBD alone and the hAng2-RBD-antibody complex was 0.5-1 Da or more, it was considered significant.
# In the case of antibody 4B9, it cannot be ruled out that an undetermined region (residues 25 to 40 of SEQ ID NO: 2) can be included in the scope of the epitope. The epitope analysis results for each antibody are shown in different colors on the 3D structure of hAng2-RBD, which was generated using PyMol software (FIG. 2).
# [1] = system: downstream signaling of the Tie2 receptor (Akt phosphorylation) in HUVECs; experiment: Akt phosphorylation in HUVECs by mouse anti-Ang2 antibodies plus hAng2 (immunoblot); format: cell-based, human; details: serum-starved HUVECs; antibody combined with hAng2 1 μg/ml; 30 min
# Protocol: To investigate whether the mouse anti-Ang2 antibodies induce the downstream signaling of the Tie2 receptor in endothelial cells, HUVECs (LONZA™) were treated with a combination of hAng2 protein and anti-Ang2 antibody, and then the level of Akt phosphorylation, the main downstream signaling protein of Tie2 receptor, was analyzed by immunoblotting. As a negative control group, the full-length hAng2 (R&D® Systems) alone was treated into the cells.
# Specifically, HUVECs (1×10^5 cells/ml) were cultured in EGM-2 medium (LONZA™) at 37° C. in a 60 mm culture dish. Cells (90% confluency) were incubated with serum-free EBM-2 medium for 4 hrs for serum starvation. The serum-starved HUVECs were treated with a mixture of anti-Ang2 antibody and hAng2 protein (1 μg/ml, R&D® Systems) and further incubated for 30 min. The cells were washed with cold PBS, treated with lysis buffer, and lysed at 4° C. for 20 min. Then, the cell lysates were prepared by centrifugation at 13000 rpm for 15 min. 5× SDS sample buffer was added to the cell lysate and the cell lysate was boiled at 95° C. for 5 min. Then, the cell lysate was subjected to SDS PAGE and proteins were transferred to a nitrocellulose membrane (GE).
# To investigate Akt phosphorylation, the blot was blocked with 5% skim milk-containing TBS-T for 1 hr at room temperature (RT), and incubated with anti-phospho-Akt antibody (S473) at 4° C. for about 8 hrs. The amount of phospho-Akt was visualized by an enhanced chemiluminescence (ECL). Then, the membrane was incubated in a stripping buffer (Thermo) for 15 min, and then reprobed with an anti-Akt antibody to determine the amount of total Akt.
molecule,measurement,setting,value
"2C8: mouse monoclonal anti-Ang2 antibody; VH SEQ ID NO: 19, VL SEQ ID NO: 21; hybridoma KCLRF-BP-00417 (antibody, V domains shown, Heavy Chain Variable Region; Light Chain Variable Region, mouse monoclonal anti-Ang2 antibody; hybridoma KCLRF-BP-00417) VH: QVQLQQSGPQLVRPGASVKISCKASGYSFTSYWMHWVKQRPGQGLEWIGMIDPSDSETRLNQKFKDKASLTVDKSSSTAYMQLSSPTSGDSAVYYCARRFYYGSDWYFDVWGAGSTVTVSS VL: DIVMTQSHKFMSTSVGDRVSITCKASQDVGTAVAWYQQKPGQSPKLLIYWASTRHTGVPDRFTGSGSGTDFTLTISNVQSEDLADYFCQQYSSYPLTFGSGTKLEIK",Relative Uptake (Da) Δ,"hAng2-RBD; residues 52-60 (SEQ ID NO: 2), exposure time 0.00 min",0.15 Da
same,Relative Uptake (Da) Δ,"hAng2-RBD; residues 52-60 (SEQ ID NO: 2), exposure time 0.33 min",0.21 Da
same,Relative Uptake (Da) Δ,"hAng2-RBD; residues 52-60 (SEQ ID NO: 2), exposure time 10.00 min",0.41 Da
same,Relative Uptake (Da) Δ,"hAng2-RBD; residues 52-60 (SEQ ID NO: 2), exposure time 60.00 min",0.14 Da
same,Relative Uptake (Da) Δ,"hAng2-RBD; residues 52-60 (SEQ ID NO: 2), exposure time 240.00 min",0.08 Da
same,Relative Uptake (Da) Δ,"hAng2-RBD; residues 61-77 (SEQ ID NO: 2), exposure time 0.00 min",0.08 Da
same,Relative Uptake (Da) Δ,"hAng2-RBD; residues 61-77 (SEQ ID NO: 2), exposure time 0.33 min",1.18 Da
same,Relative Uptake (Da) Δ,"hAng2-RBD; residues 61-77 (SEQ ID NO: 2), exposure time 10.00 min",1.78 Da
same,Relative Uptake (Da) Δ,"hAng2-RBD; residues 61-77 (SEQ ID NO: 2), exposure time 60.00 min",1.36 Da
same,Relative Uptake (Da) Δ,"hAng2-RBD; residues 61-77 (SEQ ID NO: 2), exposure time 240.00 min",1.31 Da
same,Relative Uptake (Da) Δ,"hAng2-RBD; residues 61-78 (SEQ ID NO: 2), exposure time 0.00 min",0.06 Da
same,Relative Uptake (Da) Δ,"hAng2-RBD; residues 61-78 (SEQ ID NO: 2), exposure time 0.33 min",1.15 Da
same,Relative Uptake (Da) Δ,"hAng2-RBD; residues 61-78 (SEQ ID NO: 2), exposure time 10.00 min",1.80 Da
same,Relative Uptake (Da) Δ,"hAng2-RBD; residues 61-78 (SEQ ID NO: 2), exposure time 60.00 min",1.33 Da
same,Relative Uptake (Da) Δ,"hAng2-RBD; residues 61-78 (SEQ ID NO: 2), exposure time 240.00 min",1.34 Da
same,Relative Uptake (Da) Δ,"hAng2-RBD; residues 67-77 (SEQ ID NO: 2), exposure time 0.00 min",−0.12 Da
same,Relative Uptake (Da) Δ,"hAng2-RBD; residues 67-77 (SEQ ID NO: 2), exposure time 0.33 min",0.89 Da
same,Relative Uptake (Da) Δ,"hAng2-RBD; residues 67-77 (SEQ ID NO: 2), exposure time 10.00 min",1.58 Da
same,Relative Uptake (Da) Δ,"hAng2-RBD; residues 67-77 (SEQ ID NO: 2), exposure time 60.00 min",1.21 Da
same,Relative Uptake (Da) Δ,"hAng2-RBD; residues 67-77 (SEQ ID NO: 2), exposure time 240.00 min",1.07 Da
same,Relative Uptake (Da) Δ,"hAng2-RBD; residues 67-78 (SEQ ID NO: 2), exposure time 0.00 min",0.30 Da
same,Relative Uptake (Da) Δ,"hAng2-RBD; residues 67-78 (SEQ ID NO: 2), exposure time 0.33 min",0.95 Da
same,Relative Uptake (Da) Δ,"hAng2-RBD; residues 67-78 (SEQ ID NO: 2), exposure time 10.00 min",1.66 Da
same,Relative Uptake (Da) Δ,"hAng2-RBD; residues 67-78 (SEQ ID NO: 2), exposure time 60.00 min",1.33 Da
same,Relative Uptake (Da) Δ,"hAng2-RBD; residues 67-78 (SEQ ID NO: 2), exposure time 240.00 min",1.04 Da
same,Relative Uptake (Da) Δ,"hAng2-RBD; residues 78-84 (SEQ ID NO: 2), exposure time 0.00 min",0.00 Da
same,Relative Uptake (Da) Δ,"hAng2-RBD; residues 78-84 (SEQ ID NO: 2), exposure time 0.33 min",−0.01 Da
same,Relative Uptake (Da) Δ,"hAng2-RBD; residues 78-84 (SEQ ID NO: 2), exposure time 10.00 min",0.01 Da
same,Relative Uptake (Da) Δ,"hAng2-RBD; residues 78-84 (SEQ ID NO: 2), exposure time 60.00 min",0.11 Da
same,Relative Uptake (Da) Δ,"hAng2-RBD; residues 78-84 (SEQ ID NO: 2), exposure time 240.00 min",0.36 Da
same,epitope of hAng2-RBD to which the antibody binds,hAng2-RBD; deuterium uptake difference 0.5-1 Da or more considered significant,residues 61 to 78 of SEQ ID NO: 2
same,Akt phosphorylation at S473,[1],strongly induced
